B1: snapin (protein)
chain: AAAGSAAVSGAGTPVAGPTGRDLFAEGLLEFLRPAVQQLDSHVHAVRESQVELREQIDNLATELCRINEDQKVALDLDPYVKKLLNARRRVVLVNNILQNAQERLRRLNHSVAKETARRRAMLDSGVYPPGSPSK

How the values were obtained:
Dopamine D1A D1A4 = target: T1, Dopamine D1A D1A4 (Rattus norvegicus, UniProt P18901); experiment: SPR
T1 chain: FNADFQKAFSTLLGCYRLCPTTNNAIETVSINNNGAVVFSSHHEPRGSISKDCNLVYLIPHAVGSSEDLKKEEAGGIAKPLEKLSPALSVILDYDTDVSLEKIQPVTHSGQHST

snapin = target: B1; experiment: SPR

Q: B1 was tested. Which Kd (Dopamine D1A D1A4) did it give?
A: 14.6 nM

B2: otoferlin C2F (protein)
chain: DMPAPGTPLDISPRKPKKYELRVIVWNTDEVVLEDDDFFTGEKSSDIFVRGWLKGQQEDKQDTDVHYHSLTGEGNFNWRYLFPFDYLAAEEKIVMSKKESMFSWDETEYKIPARLTLQIWDADHFSADDFLGAIELDLNRFPRGAKTAKQCT
Q: With B2 as the binder, how does the Kd (snapin) read?
A: 23.4 nM

— PMC6310132 (2016)
